Experiment [1] addresses biotinylated antigen (biotinylated 16-branched citrullinated peptide). Briefly: magnetic particle chemiluminescence immunoassay; antibody at 10 RU/ml; kit stored at 4 C for 7 days.
Experiment [2] shares this target. The experiment in a line: magnetic particle chemiluminescence immunoassay; antibody at 80 RU/ml; kit stored at 4 C for 7 days.
Experiment [3] shares this target. The experiment in a line: magnetic particle chemiluminescence immunoassay; antibody at 10 RU/ml; kit stored at 37 C for 7 days.
Experiment [4] has the same target. The experiment in a line: magnetic particle chemiluminescence immunoassay; antibody at 200 RU/ml; kit stored at 4 C for 7 days.
For experiment [5] the target is unchanged. Briefly: magnetic particle chemiluminescence immunoassay; antibody at 80 RU/ml; kit stored at 37 C for 7 days.
For experiment [6] the target is unchanged. Briefly: magnetic particle chemiluminescence immunoassay; antibody at 200 RU/ml; kit stored at 37 C for 7 days.
For experiment [7] the target is unchanged. The experiment in a line: magnetic particle chemiluminescence immunoassay; antibody at 10 RU/ml; kit stored at 4 C for 7 days; mean of two.
Experiment [8] has the same target. The experiment in a line: magnetic particle chemiluminescence immunoassay; antibody at 80 RU/ml; kit stored at 4 C for 7 days; mean of two.
For experiment [9] the target is unchanged. The experiment in a line: magnetic particle chemiluminescence immunoassay; antibody at 10 RU/ml; kit stored at 37 C for 7 days; mean of two.
Experiment [10] shares this target. The experiment in a line: magnetic particle chemiluminescence immunoassay; antibody at 200 RU/ml; kit stored at 4 C for 7 days; mean of two.
For experiment [11] the target is unchanged. Briefly: magnetic particle chemiluminescence immunoassay; antibody at 80 RU/ml; kit stored at 37 C for 7 days; mean of two.
For experiment [12] the target is unchanged. Briefly: magnetic particle chemiluminescence immunoassay; antibody at 200 RU/ml; kit stored at 37 C for 7 days; mean of two.
The target is the same in experiment [13]. Briefly: magnetic particle chemiluminescence immunoassay, antigen on streptavidin particles, AP anti-human IgG detection; antibody at 10 RU/ml; kit stored at 4 C for 7 days.

Values joined by “and” are separate entries in the source; they are usually repeats but may differ in a detail not shown here. Equal values may be shown once.

In the case of “anti-citrullinated peptide antibody (quality control material / calibrator of the kit)”, the RLU in experiment [1] was 132000 RLU; in experiment [2] it was 846000 RLU and 932000 RLU; in experiment [3], 124000 RLU; in experiment [4] it was 2.38e+06 RLU and 2.42e+06 RLU; in [5], 886000 RLU and 917000 RLU; in [6], 2.32e+06 RLU and 2.44e+06 RLU. In [13], this substance showed an RLU of 125000 RLU. The RLU (AVER) in experiment [7] was found to be 129000 RLU; in [8], 889000 RLU; in [9], 124000 RLU; in experiment [10], 2.4e+06 RLU; in experiment [11], 902000 RLU; in experiment [12] it was 2.38e+06 RLU.

Source of the values: patent publication US20210172946A1.
